Experimental data from the DeepSol protein solubility set.

Test: soluble on expression in E. coli; label from the status in PepcDB or PDB records

Which “soluble on expression in E. coli” value does the source give for “AMASASLCFLETENISKMAQILVDRCVEITNASFGFLYELVFGGDARILAVSSTAAVPAGGLCAQVKGHIEREGFFLVTPSDGLLFEPVKAGTTVLTNNPTTLDHLICRDSGNLGQINSFLGTPLKVGSRVVGMIGLTDRPDGFTDMERREIEAFAQTAALALHSARAEIEHKK” here?
Its value is “not soluble”.

For “MVEIKLENIVKKFGNFTALNNINLKIKDGEFMALLGPSGSGKSTLLYTIAGIYKPTSGKIYFDEKDVTELPPKDRNVGLVFQNWALYPHMTVYKNIAFPLELRKAPREEIDKKVREVAKMLHIDKLLNRYPWQLSGGQQQRVAIARALVKEPEVLLLDEPLSNLDALLRLEVRAELKRLQKELGITTVYVTHDQAEALAMADRIAVIREGEILQVGTPDEVYYKPKYKFVGGFLGNPPMNFVEAKVEDGKLVITEKSKLPIPKQYVEIVKETGITEVIIGFRPHDAEIVKGEGEGIVGEVYSFEPLGREQIVTVSVNDSIVKVFAPEGEHFSFGEKVTIKVKEELLVLFDKKTEKALEFSKL”, which “soluble on expression in E. coli” value is on record?
Its value is “soluble”.

For “GMEFYEVIKKRKSIKKFEQTAIDRDKLLKIIDMAMRAPSWKNKTPYKFIVVESDKLKLDIANAIENKTSAASEAVLNSPMTIVAVANPEESGDVSGKEIYLIDTAIAMEHIVLGATDEGYGTCWIAAFNENKIKEALKIPDNLRVVALTPLGVPKDSAEDEPHHPKKDMDEYLYIDKWGTSFMESNVKILEKN”, which “soluble on expression in E. coli” value is on record?
The value was “soluble”.

Which “soluble on expression in E. coli” value does the source give for “MGHHHHHHSHMEYSCGTAAIRGTKELGEGQHFWEIKMTSPVYGTLTFFKNRKCIGVAATKLQNKRFYPMVCSTAARSSMKVTRSCASATSLQYLCCHRLRQLRPDSGDTLEGLPLPPGLKQVLHNKLGWVLSMSCSRRKAPVSDPQAATSAHPSSREPRPCQRKRCRRT” here?
The value was “not soluble”.

For “YFNLQFGANLDVYLTKKWSVGADLLLSFKTYQYKNTLLGYSELTMKENQLWLELPIVLKYTMGQKKLRYYLQAGGAVSMILSSNSNIVRKDAATQSNQAIGPDINTRDLRNMFNYSLVGGGGIRYKAGYGYLVLDVKYMYGLNNISDMDNKYSNDELIYKYGYIDNDFTLNSLMFSIGYYKSFYKPKKLPTYEK”, which “soluble on expression in E. coli” value is on record?
The value was “not soluble”.

Which “soluble on expression in E. coli” value does the source give for “MLEEVERWLDARSWPAADRPVQHLLSAKHATGQSVSVVLPALDEEATVGDIVSVIRRELVLGVPLVDEIVVVDSGSSDRTSEVAAAAGARVVHRDAILPRIPAVPGKGEVLWRSLLVTGGDIVCFVDADLREFSADFVSGIVGPLLTDPDVHLVKAMYDRPLAGAAGQGGRVTELMARPLLNMHWPQLAGFVQPLGGEYAARRSLLERLPFPVGYGVELGMLVDALHLVGLDALAQVDVGVRVHRHQDGRALGRMAAAIYRTAQLRLARGHLVRPALTQFERGVDGFEPRTYAVDTEERPPMTEIAEYAARKVALEHHHHHH” here?
Its value is “soluble”.

Which “soluble on expression in E. coli” value does the source give for “MIMFNYQQTSQSCVKCGKCIPSCTIYNIHPDEVTSPRGFIDLLGAYQRGELELDKNAKDIFEKCFLCTNCTYVCPNLLPTDQVIENVRAEIAQKFGIAWFKRAYFFLLRNRWLMDWGLEHHHHHH” here?
Its value is “not soluble”.

Which “soluble on expression in E. coli” value does the source give for “MGSDKIHHHHHHMRIVNDVKKILFLAANPQNTVRLRLDKEVEEIRTTLQLSVNRDRFVIESRGAVRPDDLQQYMYNLKPQIVHFSGHGGGEYGLAFEDENGAEQPVSTDALAKFFQLFAGEVNCVVLNACYASVQAEAIAQYIPYVVGMNQAIGDEAARQFAQGFYRAIWDNRSIEDAFASGVNAIALDGIPEDLTPVLLRQADRVTTQTIPSNSVSLESPDGQVRIDSRFYVHSSYEERCYAEVKKPGSLIRIKSPHNMGKSSLMVRVLGYAAQLGYRTVTLNLEQVNQKFFNDLDKYMQWFCASVGKPLGVRIKIEEYWDDIFGANDNSTDYFEKYLLDDTEPPLVVAIDNFDRVFKYPDIETDFCGLLRGWHERSRSNQLWGKLRFVIVYSQEPYLQKDINQSPFNVGLPIELGEFTTAQVQELIRLHGLDWSGQFVKQFMDLIGGHPYLVRSALYHIAAGDLTLEEFLRTAPTEAGIYSDYLLGHLKSLEDYPTLGAAMKTVVTSEFPVRLRSEEAFRVWLCGLRITSSPDANCIVNIFAIA” here?
The value was “not soluble”.

For “MAQKKPKRNLSALKRHRQSLKRRLRNKAKKSAIKTLSKKAIQLAQEGKAEEALKIMRKAESLIDKAAKGSTLHKNAAARRKSRLMRKVRQLLEAAGAPLIGGGLSA”, which “soluble on expression in E. coli” value is on record?
Its value is “soluble”.

Which “soluble on expression in E. coli” value does the source give for “GMLPRLCCLEKGPNGYGFHLHGEKGKLGQYIRLVEPGSPAEKAGLLAGDRLVEVNGENVEKETHQQVVSRIRAALNAVRLLVVDPEEDSFL” here?
The value was “soluble”.

With “MSLHEAADGILETHVTWKDIEEAMQLSFGTYATFGDNMKATNISDLKGFQSIIALIEPDWIDVEKGKDLPKKFAVKISTQLALAVLSKIMKLGGENGFSEEKLNELGKLIRDGHNREVATYKLLEKMNHPDIPYTKVYGLKGYSDANDLKGFMIMEFIPNVRSIPMYEAILADDLISLVRGIATFAALGETLSEEEKAFAGGPEYLESMFEEVFTDEQLERIY” as the sequence, how does the “soluble on expression in E. coli” value read?
The value was “not soluble”.

For “VLDDEEKIVDLSSSIEKFLDFAPGSLAGVALSEILHPEDYLHFKTALDRQKPHEAVLMFYSRFKTGDGSWLNVEWSLSIKRKPMTDQYEYTIILRKTDNPLF”, which “soluble on expression in E. coli” value is on record?
The value was “not soluble”.

With “MSLSDDRLSLQTFLTRVTAVRLKLQQVVTAPDPEAMIQVLAQTVFQGKGADLTDIQAYGNLIAASLGADWGPAANTLFVRPLDQAWQQILLPSSAGLNRAWQRAIVDEWQGAFSGRYPFAATSSDASLPMLGQMIRADSGRIEQFLAQQLMGLLRKEGSRWVADSRQSQGLRFNPDFLTAINQLSQLADVLYTDGGMGVSFELQGKPVRDVVQTTFVLNGEKHHYFNQRESWQRFRWPGQGDHPGISEGHHHHHH” as the sequence, how does the “soluble on expression in E. coli” value read?
The value was “soluble”.

Which “soluble on expression in E. coli” value does the source give for “MPNCPNCQKPVYFAERVSSLGKDWHRPCLKCANKACGKTLSAGSHSEHEGKPYCNRCYGALFGPKGYGHGGTESHTFLQGTTGN” here?
The value was “soluble”.

With “MSVKMKKCSREDLQTLQQLSIETFNDTFKEQNSPENMKAYLESAFNTEQLEKELSNMSSQFFFIYFDHEIAGYVKVNIDDAQSEEMGAESLEIERIYIKNSFQKHGLGKHLLNKAIEIALERNKKNIWLGVWEKNENAIAFYKKMGFVQTGAHSFYMGDEEQTDLIMAKTLILEHHHHHH” as the sequence, how does the “soluble on expression in E. coli” value read?
Its value is “soluble”.

Which “soluble on expression in E. coli” value does the source give for “MEATRNETKPVWVYIIFRKNHCSGHEKMTVNISFDGPIFWKRQVAYIYCCSCHFDEHEGPLMAILEKFEQRVERVCLVDKPVDYPFLPDSLFSYMANKMPKLQFIYLRELDLEKINRGTVVELANHPNLKKVIVHLCRNYEVLEDFRNLPQLLVVKGEIMGLKVSTW” here?
The value was “not soluble”.

With “MDAVNKFSVENWYPHLRKHTFKSHFITLNYNDIHYLMGNIPPDYDSSKLESIFNKILSEFNNKEVFMRLSTRSPKDSKFLFEEASTIMSKDFVYWNENDNKHQQLVSFVASMLKAMKIKSGRKIIETIAQSPRVYNDLLALVSSSNQSDCTTNVILREWHDIRPDHEFRVFVSRRHRKESIVTAISQYFHFLYFDKSPADCFNFLDEEDKKAVIKKFENYVLKSVDPDVAKFLNFSSEQDDDESSDCIREYIVDLALIPVSQYHGEITDENIIEIGANTYVMVVIELNPFAPAATGSGLFNWKNDLMMLWGKASCDYPVFKYRTTPREDLQSVSLLPSNYESVIKSALIKRLETLEHHHHHH” as the sequence, how does the “soluble on expression in E. coli” value read?
The value was “not soluble”.

With “MHEFRDYYGHRVRLAFADHPFSPSPGHVWVICRYGGRWLLTDHPRRGLEFPGGKVEEGETAAEAAAREVMEETGGIVGRLEYIGQYKVEPDIVKNIYFADIAALVERGSYLETNGPVLLEALPDDIRSDQRFSYFMKDDVLSLALAKLKQRGLID” as the sequence, how does the “soluble on expression in E. coli” value read?
Its value is “not soluble”.
